Laboratory results as given in US20110118447A1.

Target: binding partner of C5A (XPA23)
Assay: Biacore K-off

fold difference in affinity vs original [fold] | Binder
0.4 | C5A (XPA23) VL D92A (antibody, V domains shown) VH: EVQLLESGGGLVQPGGSLRLSCAASGFTFSKYFMFWVRQAPGKGLEWVSVISPSGGMTRYADSVKGRFTISRDNSKNTLYLQMNSLRAEDTAVYYCARVGYGGNSDYWGQGTLVTVSS VL: DIQMTQSPSSVSASVGDRLTIICRASQDINRWLAWYQQTPGNAPKLLIHSATSLQSGVPSRFSGSGSGTDFTLTINSLQPEDFATYYCQQAASFPLTFGGGTKVEIK
0.33 | C5A (XPA23) VL D92I (antibody, V domains shown) VH: EVQLLESGGGLVQPGGSLRLSCAASGFTFSKYFMFWVRQAPGKGLEWVSVISPSGGMTRYADSVKGRFTISRDNSKNTLYLQMNSLRAEDTAVYYCARVGYGGNSDYWGQGTLVTVSS VL: DIQMTQSPSSVSASVGDRLTIICRASQDINRWLAWYQQTPGNAPKLLIHSATSLQSGVPSRFSGSGSGTDFTLTINSLQPEDFATYYCQQAISFPLTFGGGTKVEIK
4.49 | C5A (XPA23) VL L96W (antibody, V domains shown) VH: EVQLLESGGGLVQPGGSLRLSCAASGFTFSKYFMFWVRQAPGKGLEWVSVISPSGGMTRYADSVKGRFTISRDNSKNTLYLQMNSLRAEDTAVYYCARVGYGGNSDYWGQGTLVTVSS VL: DIQMTQSPSSVSASVGDRLTIICRASQDINRWLAWYQQTPGNAPKLLIHSATSLQSGVPSRFSGSGSGTDFTLTINSLQPEDFATYYCQQADSFPWTFGGGTKVEIK
0.17 | C5A (XPA23) VL F94P (antibody, V domains shown) VH: EVQLLESGGGLVQPGGSLRLSCAASGFTFSKYFMFWVRQAPGKGLEWVSVISPSGGMTRYADSVKGRFTISRDNSKNTLYLQMNSLRAEDTAVYYCARVGYGGNSDYWGQGTLVTVSS VL: DIQMTQSPSSVSASVGDRLTIICRASQDINRWLAWYQQTPGNAPKLLIHSATSLQSGVPSRFSGSGSGTDFTLTINSLQPEDFATYYCQQADSPPLTFGGGTKVEIK
0.88 | C5A (XPA23) VL F94I (antibody, V domains shown) VH: EVQLLESGGGLVQPGGSLRLSCAASGFTFSKYFMFWVRQAPGKGLEWVSVISPSGGMTRYADSVKGRFTISRDNSKNTLYLQMNSLRAEDTAVYYCARVGYGGNSDYWGQGTLVTVSS VL: DIQMTQSPSSVSASVGDRLTIICRASQDINRWLAWYQQTPGNAPKLLIHSATSLQSGVPSRFSGSGSGTDFTLTINSLQPEDFATYYCQQADSIPLTFGGGTKVEIK
0.28 | C5A (XPA23) VL L96F (antibody, V domains shown) VH: EVQLLESGGGLVQPGGSLRLSCAASGFTFSKYFMFWVRQAPGKGLEWVSVISPSGGMTRYADSVKGRFTISRDNSKNTLYLQMNSLRAEDTAVYYCARVGYGGNSDYWGQGTLVTVSS VL: DIQMTQSPSSVSASVGDRLTIICRASQDINRWLAWYQQTPGNAPKLLIHSATSLQSGVPSRFSGSGSGTDFTLTINSLQPEDFATYYCQQADSFPFTFGGGTKVEIK
1.08 | C5A (XPA23) VL S93L (antibody, V domains shown) VH: EVQLLESGGGLVQPGGSLRLSCAASGFTFSKYFMFWVRQAPGKGLEWVSVISPSGGMTRYADSVKGRFTISRDNSKNTLYLQMNSLRAEDTAVYYCARVGYGGNSDYWGQGTLVTVSS VL: DIQMTQSPSSVSASVGDRLTIICRASQDINRWLAWYQQTPGNAPKLLIHSATSLQSGVPSRFSGSGSGTDFTLTINSLQPEDFATYYCQQADLFPLTFGGGTKVEIK
0.2 | C5A (XPA23) VL F94V (antibody, V domains shown) VH: EVQLLESGGGLVQPGGSLRLSCAASGFTFSKYFMFWVRQAPGKGLEWVSVISPSGGMTRYADSVKGRFTISRDNSKNTLYLQMNSLRAEDTAVYYCARVGYGGNSDYWGQGTLVTVSS VL: DIQMTQSPSSVSASVGDRLTIICRASQDINRWLAWYQQTPGNAPKLLIHSATSLQSGVPSRFSGSGSGTDFTLTINSLQPEDFATYYCQQADSVPLTFGGGTKVEIK
3.83 | C5A (XPA23) VL P95A (antibody, V domains shown) VH: EVQLLESGGGLVQPGGSLRLSCAASGFTFSKYFMFWVRQAPGKGLEWVSVISPSGGMTRYADSVKGRFTISRDNSKNTLYLQMNSLRAEDTAVYYCARVGYGGNSDYWGQGTLVTVSS VL: DIQMTQSPSSVSASVGDRLTIICRASQDINRWLAWYQQTPGNAPKLLIHSATSLQSGVPSRFSGSGSGTDFTLTINSLQPEDFATYYCQQADSFALTFGGGTKVEIK
0.26 | C5A (XPA23) VL D92F (antibody, V domains shown) VH: EVQLLESGGGLVQPGGSLRLSCAASGFTFSKYFMFWVRQAPGKGLEWVSVISPSGGMTRYADSVKGRFTISRDNSKNTLYLQMNSLRAEDTAVYYCARVGYGGNSDYWGQGTLVTVSS VL: DIQMTQSPSSVSASVGDRLTIICRASQDINRWLAWYQQTPGNAPKLLIHSATSLQSGVPSRFSGSGSGTDFTLTINSLQPEDFATYYCQQAFSFPLTFGGGTKVEIK
0.14 | C5A (XPA23) VL D92L (antibody, V domains shown) VH: EVQLLESGGGLVQPGGSLRLSCAASGFTFSKYFMFWVRQAPGKGLEWVSVISPSGGMTRYADSVKGRFTISRDNSKNTLYLQMNSLRAEDTAVYYCARVGYGGNSDYWGQGTLVTVSS VL: DIQMTQSPSSVSASVGDRLTIICRASQDINRWLAWYQQTPGNAPKLLIHSATSLQSGVPSRFSGSGSGTDFTLTINSLQPEDFATYYCQQALSFPLTFGGGTKVEIK
0.12 | C5A (XPA23) VL D92W (antibody, V domains shown) VH: EVQLLESGGGLVQPGGSLRLSCAASGFTFSKYFMFWVRQAPGKGLEWVSVISPSGGMTRYADSVKGRFTISRDNSKNTLYLQMNSLRAEDTAVYYCARVGYGGNSDYWGQGTLVTVSS VL: DIQMTQSPSSVSASVGDRLTIICRASQDINRWLAWYQQTPGNAPKLLIHSATSLQSGVPSRFSGSGSGTDFTLTINSLQPEDFATYYCQQAWSFPLTFGGGTKVEIK
1.16 | C5A (XPA23) VL S93A (antibody, V domains shown) VH: EVQLLESGGGLVQPGGSLRLSCAASGFTFSKYFMFWVRQAPGKGLEWVSVISPSGGMTRYADSVKGRFTISRDNSKNTLYLQMNSLRAEDTAVYYCARVGYGGNSDYWGQGTLVTVSS VL: DIQMTQSPSSVSASVGDRLTIICRASQDINRWLAWYQQTPGNAPKLLIHSATSLQSGVPSRFSGSGSGTDFTLTINSLQPEDFATYYCQQADAFPLTFGGGTKVEIK
0.98 | C5A (XPA23) VL P95F (antibody, V domains shown) VH: EVQLLESGGGLVQPGGSLRLSCAASGFTFSKYFMFWVRQAPGKGLEWVSVISPSGGMTRYADSVKGRFTISRDNSKNTLYLQMNSLRAEDTAVYYCARVGYGGNSDYWGQGTLVTVSS VL: DIQMTQSPSSVSASVGDRLTIICRASQDINRWLAWYQQTPGNAPKLLIHSATSLQSGVPSRFSGSGSGTDFTLTINSLQPEDFATYYCQQADSFFLTFGGGTKVEIK
1.35 | C5A (XPA23) VL S93I (antibody, V domains shown) VH: EVQLLESGGGLVQPGGSLRLSCAASGFTFSKYFMFWVRQAPGKGLEWVSVISPSGGMTRYADSVKGRFTISRDNSKNTLYLQMNSLRAEDTAVYYCARVGYGGNSDYWGQGTLVTVSS VL: DIQMTQSPSSVSASVGDRLTIICRASQDINRWLAWYQQTPGNAPKLLIHSATSLQSGVPSRFSGSGSGTDFTLTINSLQPEDFATYYCQQADIFPLTFGGGTKVEIK
0.75 | C5A (XPA23) VL S93G (antibody, V domains shown) VH: EVQLLESGGGLVQPGGSLRLSCAASGFTFSKYFMFWVRQAPGKGLEWVSVISPSGGMTRYADSVKGRFTISRDNSKNTLYLQMNSLRAEDTAVYYCARVGYGGNSDYWGQGTLVTVSS VL: DIQMTQSPSSVSASVGDRLTIICRASQDINRWLAWYQQTPGNAPKLLIHSATSLQSGVPSRFSGSGSGTDFTLTINSLQPEDFATYYCQQADGFPLTFGGGTKVEIK
0.55 | C5A (XPA23) VL F94L (antibody, V domains shown) VH: EVQLLESGGGLVQPGGSLRLSCAASGFTFSKYFMFWVRQAPGKGLEWVSVISPSGGMTRYADSVKGRFTISRDNSKNTLYLQMNSLRAEDTAVYYCARVGYGGNSDYWGQGTLVTVSS VL: DIQMTQSPSSVSASVGDRLTIICRASQDINRWLAWYQQTPGNAPKLLIHSATSLQSGVPSRFSGSGSGTDFTLTINSLQPEDFATYYCQQADSLPLTFGGGTKVEIK
3.81 | C5A (XPA23) VL S93V (antibody, V domains shown) VH: EVQLLESGGGLVQPGGSLRLSCAASGFTFSKYFMFWVRQAPGKGLEWVSVISPSGGMTRYADSVKGRFTISRDNSKNTLYLQMNSLRAEDTAVYYCARVGYGGNSDYWGQGTLVTVSS VL: DIQMTQSPSSVSASVGDRLTIICRASQDINRWLAWYQQTPGNAPKLLIHSATSLQSGVPSRFSGSGSGTDFTLTINSLQPEDFATYYCQQADVFPLTFGGGTKVEIK
1.32 | C5A (XPA23) VL S93F (antibody, V domains shown) VH: EVQLLESGGGLVQPGGSLRLSCAASGFTFSKYFMFWVRQAPGKGLEWVSVISPSGGMTRYADSVKGRFTISRDNSKNTLYLQMNSLRAEDTAVYYCARVGYGGNSDYWGQGTLVTVSS VL: DIQMTQSPSSVSASVGDRLTIICRASQDINRWLAWYQQTPGNAPKLLIHSATSLQSGVPSRFSGSGSGTDFTLTINSLQPEDFATYYCQQADFFPLTFGGGTKVEIK
0.67 | C5A (XPA23) VL L96I (antibody, V domains shown) VH: EVQLLESGGGLVQPGGSLRLSCAASGFTFSKYFMFWVRQAPGKGLEWVSVISPSGGMTRYADSVKGRFTISRDNSKNTLYLQMNSLRAEDTAVYYCARVGYGGNSDYWGQGTLVTVSS VL: DIQMTQSPSSVSASVGDRLTIICRASQDINRWLAWYQQTPGNAPKLLIHSATSLQSGVPSRFSGSGSGTDFTLTINSLQPEDFATYYCQQADSFPITFGGGTKVEIK
5.49 | C5A (XPA23) VL S93W (antibody, V domains shown) VH: EVQLLESGGGLVQPGGSLRLSCAASGFTFSKYFMFWVRQAPGKGLEWVSVISPSGGMTRYADSVKGRFTISRDNSKNTLYLQMNSLRAEDTAVYYCARVGYGGNSDYWGQGTLVTVSS VL: DIQMTQSPSSVSASVGDRLTIICRASQDINRWLAWYQQTPGNAPKLLIHSATSLQSGVPSRFSGSGSGTDFTLTINSLQPEDFATYYCQQADWFPLTFGGGTKVEIK
0.26 | C5A (XPA23) VL L96A (antibody, V domains shown) VH: EVQLLESGGGLVQPGGSLRLSCAASGFTFSKYFMFWVRQAPGKGLEWVSVISPSGGMTRYADSVKGRFTISRDNSKNTLYLQMNSLRAEDTAVYYCARVGYGGNSDYWGQGTLVTVSS VL: DIQMTQSPSSVSASVGDRLTIICRASQDINRWLAWYQQTPGNAPKLLIHSATSLQSGVPSRFSGSGSGTDFTLTINSLQPEDFATYYCQQADSFPATFGGGTKVEIK
